Measurements from patent US20110071077A1, “Thrombopoietic Compounds” (AMGEN INC., priority 2006, published 2011).
Bridge positions count the residues as written; N and C are the ends. Ends that are not written are not given here. PEG = not defined here

What was measured:
human mpl receptor = target: T1, human mpl receptor (Homo sapiens, UniProt P40238); assay: TPO in vitro bioassay, mitogenic assay in IL-3 dependent murine 32D cells; assay type: cell-based; settings: for Relative Potency: in terms of EC50, numerals indicate approximately 1 log of activity
T1 construct: IL-3 dependent clone of murine 32D cells transfected with the full-length c-Mpl; expressed in transfected cells; host or cells: IL-3 dependent clone of murine 32D cells
T1 sequence (P40238 26-635): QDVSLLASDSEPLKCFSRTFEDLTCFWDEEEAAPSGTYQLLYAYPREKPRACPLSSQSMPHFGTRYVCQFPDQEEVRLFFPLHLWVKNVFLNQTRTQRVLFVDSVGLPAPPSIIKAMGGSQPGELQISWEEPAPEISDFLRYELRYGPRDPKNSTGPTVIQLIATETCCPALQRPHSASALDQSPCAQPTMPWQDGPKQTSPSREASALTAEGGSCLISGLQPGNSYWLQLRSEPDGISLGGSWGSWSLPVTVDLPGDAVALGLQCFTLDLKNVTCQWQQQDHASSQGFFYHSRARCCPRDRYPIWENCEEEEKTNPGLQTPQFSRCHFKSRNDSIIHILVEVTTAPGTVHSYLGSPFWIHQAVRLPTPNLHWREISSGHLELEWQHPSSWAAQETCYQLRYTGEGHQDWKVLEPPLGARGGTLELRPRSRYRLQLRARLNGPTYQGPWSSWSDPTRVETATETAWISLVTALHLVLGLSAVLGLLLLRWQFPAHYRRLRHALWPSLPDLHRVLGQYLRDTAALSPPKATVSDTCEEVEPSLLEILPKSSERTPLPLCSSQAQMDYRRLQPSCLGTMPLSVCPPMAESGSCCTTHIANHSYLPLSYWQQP
Experimental: Bioactivity assay. The TPO in vitro bioassay is a mitogenic assay utilizing an IL-3 dependent clone of murine 32D cells that have been transfected with human mpl receptor. This assay is described in greater detail in WO 95/26746. Cells are maintained in MEM medium containing 10% Fetal Clone II and 1 ng/ml mIL-3. Prior to sample addition, cells are prepared by rinsing twice with growth medium lacking mIL-3. An extended twelve point TPO standard curve is prepared, ranging from 3333 to 39 pg/ml. Four dilutions, estimated to fall within the linear portion of the standard curve, (1000 to 125 pg/ml), are prepared for each sample and run in triplicate. A volume of 100 μl of each dilution of sample or standard is added to appropriate wells of a 96 well microtiter plate containing 10,000 cells/well. After forty-four hours at 37° C. and 10% CO2, MTS (a tetrazolium compound which is bioreduced by cells to a formazan) is added to each well. Approximately six hours later, the optical density is read on a plate reader at 490 nm. A dose response curve (log TPO concentration vs. O.D.-Background) is generated and linear regression analysis of points which fall in the linear portion of the standard curve is performed. Concentrations of unknown test samples are determined using the resulting linear equation and a correction for the dilution factor. […]

c-Mpl receptor = target: T2, c-Mpl receptor (Homo sapiens, UniProt P40238); settings: cited from earlier work
T2 sequence (P40238 26-635): T1 sequence (P40238 26-635)

c-Mpl = target: T3, c-Mpl (Homo sapiens, UniProt P40238); settings: cited from earlier work
T3 sequence (P40238 26-491 limits assumed): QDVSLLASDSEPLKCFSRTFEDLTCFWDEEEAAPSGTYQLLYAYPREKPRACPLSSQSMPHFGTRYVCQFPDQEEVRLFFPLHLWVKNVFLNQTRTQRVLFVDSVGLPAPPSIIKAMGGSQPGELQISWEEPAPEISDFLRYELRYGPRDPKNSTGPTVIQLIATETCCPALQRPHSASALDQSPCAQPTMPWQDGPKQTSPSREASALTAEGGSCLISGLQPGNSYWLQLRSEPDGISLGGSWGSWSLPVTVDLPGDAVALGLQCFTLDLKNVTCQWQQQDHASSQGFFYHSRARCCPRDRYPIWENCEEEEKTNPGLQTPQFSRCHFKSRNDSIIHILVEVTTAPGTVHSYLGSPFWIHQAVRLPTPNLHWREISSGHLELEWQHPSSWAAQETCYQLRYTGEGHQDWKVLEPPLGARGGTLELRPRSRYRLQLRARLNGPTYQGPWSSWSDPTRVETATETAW

Normal female BDF1 mice = assay: platelets in mice, 7-day micro-osmotic pumps; assay type: in vivo
Experimental: Mice. Normal female BDF1 approximately 10-12 weeks of age.
Bleed schedule. Ten mice per group treated on day 0, two groups started 4 days apart for a total of 20 mice per group. Five mice bled at each time point, mice were bled a minimum of three times a week. Mice were anesthetized with isoflurane and a total volume of 140-160 μl of blood was obtained by puncture of the orbital sinus. Blood was counted on a Technicon H1E blood analyzer running software for murine blood. Parameters measured were white blood cells, red blood cells, hematocrit, hemoglobin, platelets, neutrophils.
Treatments. Mice were either injected subcutaneously for a bolus treatment or implanted with 7 day micro-osmotic pumps for continuous delivery. Subcutaneous injections were delivered in a volume of 0.2 ml. Osmotic pumps were inserted into a subcutaneous incision made in the skin between the scapulae of anesthetized mice. Compounds were diluted in PBS with 0.1% BSA. All experiments included one control group, labeled “carrier” that were treated with this diluent only. The concentration of the test articles in the pumps was adjusted so that the calibrated flow rate from the pumps gave the treatment levels indicated in the graphs.
Compounds. A dose titration of the compound was delivered to mice in 7 day micro-osmotic pumps. Mice were treated with various compounds at a single dose of 100 ug/kg in 7 day osmotic pumps. Some of the same compounds were then given to mice as a single bolus injection.

IEGPTLRQALAARA-GGGGGGGG-IEGPTLRQALAARA (IEGPTLRQALAARAGGGGGGGGIEGPTLRQALAARA) [peptide 16]
in vitro bioactivity in words (human mpl receptor): inactive | Relative Potency (human mpl receptor): 0.5

IEGPTLRQCLAARA-GGGGGGGG-IEGPTLRQCLAARA (IEGPTLRQCLAARAGGGGGGGGIEGPTRLQCLAARA) [compound 15]
in vitro bioactivity in words (human mpl receptor): inactive | Relative Potency (human mpl receptor): 0.5

IEGPTLRQWLAARA [TMP monomer, 14-residue TPO Mimetic Peptide (Cwirla et al.)]
Relative Potency (human mpl receptor): 1.0 | EC50 (c-Mpl receptor): 400 nM | IC50 (c-Mpl): 2 nM

IEGPTLRQWLAARAARAALWQRLTPGEI [TMP C-C dimer, reference compound]
in vitro bioactivity in words (human mpl receptor): lower than that of the native TPO protein | Relative Potency (human mpl receptor): 3.5 | EC50 (c-Mpl receptor): 0.1 nM | binding affinity (c-Mpl): 0.5 nM

TMP-GGGC(PEG)GGGG-TMP (IEGPTLRQWLAARAGGGC(PEG)GGGGIEGPTLRQWLAARA; reading uncertain) [peptide 20]
activity compared with unpegylated rHu-MGDF (Normal female BDF1 mice; 10 μg/kg/day): about equally active as 100 μg/kg/day unpegylated rHu-MGDF | activity relative to maximum (Normal female BDF1 mice; 10 μg/kg/day): about 50% | dose of maximum effect (Normal female BDF1 mice; dose response, data not shown): 100 µg/kg/day | lowest dose at which activity could be seen (Normal female BDF1 mice; mouse, in vivo): 1 µg/kg/day | in vitro bioactivity in words (human mpl receptor): even higher in vitro bioactivity as compared to their unpegylated counterparts | Relative Potency (human mpl receptor): 5.0

TMP-GGGCGGGG-TMP (IEGPTLRQWLAARAGGGCGGGGIEGPTLRQWLAARA) [peptide 18]
Relative Potency (human mpl receptor): 4.0

TMP-GGGK(PEG)GGGG-TMP (IEGPTLRQWLAARAGGGK(PEG)GGGGIEGPTLRQWLAARA; reading uncertain) [peptide 19]
in vitro bioactivity in words (human mpl receptor): even higher in vitro bioactivity as compared to their unpegylated counterparts | Relative Potency (human mpl receptor): 5.0

TMP-GGGKGGGG-TMP (IEGPTLRQWLAARAGGGKGGGGIEGPTLRQWLAARA) [peptide 17a]
Relative Potency (human mpl receptor): 4.0

TMP-GGGNGSGG-TMP (IEGPTLRQWLAARAGGGNGSGGIEGPTLRQWLAARA) [compound 21]
in vitro bioactivity in words (human mpl receptor): activity comparable to that of the -(Gly)8- linked analog | Relative Potency (human mpl receptor): 4.0

TMP-GPNG-TMP (IEGPTLRQWLAARAGPNGIEGPTLRQWLAARA) [peptide 13]
increase in potency as compared to the monomer (human mpl receptor): about 100 fold | Relative Potency (human mpl receptor): 3.0

TPO: native TPO protein, endogenous thrombopoietin
Relative Potency (human mpl receptor): 4.0

peptide 14: Trp in each TMP monomer replaced with Cys, intramolecular disulfide bond between the two cysteines (IEGPTLRQCLAARAGGGGGGGGIEGPTLRQCLAARA; disulfide 9-31)
in vitro bioactivity in words (human mpl receptor): inactive | Relative Potency (human mpl receptor): 0.5
